Results as given in patent US20260027220A1, “EPHA2 BCL-XL INHIBITOR ANTIBODY-DRUG CONJUGATES AND METHODS OF USE THEREOF” (Novartis AG, priority 2022, published 2026).
Substitutions are numbered along the chain they refer to. In names and notes the source's numbering stands. Several values for one entry are separate records, joined by “and”; a condition that tells them apart may be missing. Equal values may be shown once. Values belong to the binder of their own block, whether it stands above or below them.

Tests used:
[1] = molecular target: T1, human EphA2 expressed on HKB-11 cells (human, UniProt P29317 24-976); assay: KinExA apparent (avid) equilibrium KD on human EphA2 HKB-11 cells
T1 construct: The HKB-11 cells were transduced to overexpress EphA2; also called HKB-11 EphA2+ cell line
Protocol: (§1) Free antibody in equilibrium titration reactions were measured by KinExA using a KinExA 3200, Autosampler (Sapidyne). Data were analyzed using KinExA Pro 4-5-X (Sapidyne).
(§2) Anti-EphA2 antibody was diluted in PBS with 10% HI-FBS and 0.04% sodium azide to 2× the final concentration of binding sites needed for equilibrium titration. […] Cells and antibody were combined 1:1 in an eppendorf tube and incubated overnight, 4° C., rotating. Buffer and antibody alone samples were included. Cells were pelleted and supernatants were transferred to a 2 ml 96-well deep well plate covered with pierceable film.
Data were analyzed by n-Curve Analysis.

[2] = molecular target: T1, human EphA2 expressed on HKB-11 cells; assay: KinExA avid equilibrium KD on cells, average of replicates
Protocol: as §1, §2
Data were analyzed by n-Curve Analysis.

[3] = molecular target: T1, human EphA2 expressed on HKB-11 cells; assay: flow cytometry on HKB-11 cells overexpressing EphA2; lot DE-54-AX20
Protocol: (§3) The binding affinity of EphA2 antibodies on cells was evaluated using flow cytometry (FACS). […] Cell lines were cultured in media that is optimal for their growth at 5% CO₂, 37° C. in a tissue culture incubator. Cell viability and cell density were determined using a cell counter (Vi-Cell XR Cell Viability Analyzer, Beckman Coulter). […] All subsequent steps were performed on ice and in ice cold FACS buffer to prevent internalization of the receptor. Cells were resuspended in 100 μL of FACS buffer containing an 11-point serial dilution of test antibodies at final concentrations of 200 nM-0.003 nM. Cells were incubated at 4° C. for 45 minutes. Following incubation, cells were washed three times in ice cold PBS at 1000 rpm for 5 minutes with 200 μL FACS buffer. […] Cells were incubated in the dark at 4° C. for 45 minutes. Following incubation, cells were washed three times in ice cold PBS at 1000 rpm for 5 minutes with 200 μL FACS buffer. Cells were then resuspended in 100 μL FACS buffer containing DAPI (ThermoFisher, #D1306) staining followed by readout via flow cytometry (MACSQuant® Analyzer 10). Data was analyzed using FlowJo v10.8.1 to obtain MFI (Mean Fluorescence Intensity) on live cells. EC₅₀ values were calculated using the GraphPad Prism 9 software. There were three rounds of experiments performed to evaluate three groupings of EphA2 antibodies. […]

mouse EphA2 ectodomain [4] = molecular target: T2, mouse EphA2 ectodomain (mouse, UniProt Q03145 26-538); assay: SPR (Biacore 8k), Fab-capture, 37C, 1:1 model;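 further: Anti-EphA2 IgG captured via immobilized anti-Fab, soluble EphA2 ectodomain as analyte at six twofold dilutions from 50 nM, HBS-EP+ pH 7.6 running buffer, double reference subtraction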
T2 construct: extracellular domain
Protocol: (§4) A human Fab capture method was utilized in order to determine kinetics for the antibodies. […] Each channel has two flow cells. The reference flow cell contained only immobilized anti-Fab, whereas the reaction flow cell captured anti-EphA2 IgG through anti-Fab. HBS-EP+ Buffer, pH 7.6 was used as the running buffer. The soluble human, mouse and cyno EphA2 ectodomain flowed over both flow cells on 8 channels. The EphA2 ectodomain concentration started at 50 nM and was serially diluted at one part to one part (1:1) in the running buffer for six concentrations. The analysis chamber was kept at 37° C. Regeneration was performed at the end of each sample washing with the solution of 10 mM Glycine-HCl, pH 2.1 provided in the kit.
(§5) The data were analysed using the Biacore Insight Evaluation Software. Double reference subtraction was completed to generate the final data. The raw data was fitted to a 1:1 binding model, with parameter(s) Rₘₐₓ set to local.

human EphA2 ectodomain [5] = molecular target: T3, human EphA2 ectodomain (human, UniProt P29317 24-537); assay: SPR (Biacore 8k), Fab-capture, 37C, 1:1 model;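 further: Anti-EphA2 IgG captured via immobilized anti-Fab, soluble EphA2 ectodomain as analyte at six twofold dilutions from 50 nM, HBS-EP+ pH 7.6 running buffer, double reference subtraction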
T3 construct: Soluble ectodomain used as the SPR analyte
Protocol: as §4, §5

cyno EphA2 ectodomain [6] = molecular target: T4, cyno EphA2 ectodomain (cyno, UniProt Q1KL86 25-537); assay: SPR (Biacore 8k), Fab-capture, 37C, 1:1 model;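 further: Anti-EphA2 IgG captured via immobilized anti-Fab, soluble EphA2 ectodomain as analyte at six twofold dilutions from 50 nM, HBS-EP+ pH 7.6 running buffer, double reference subtraction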
T4 construct: extracellular domain
Protocol: as §4, §5

[7] = molecular target: T1, human EphA2 expressed on HKB-11 cells; assay: flow cytometry on HKB-11 cells overexpressing EphA2; lot VE-39-AK34
Protocol: as §3

[8] = molecular target: T1, human EphA2 expressed on HKB-11 cells; assay: flow cytometry on HKB-11 cells overexpressing EphA2; lot ZF-74-CQ11
Protocol: as §3

[9] = molecular target: T1, human EphA2 expressed on HKB-11 cells; assay: flow cytometry on HKB-11 cells overexpressing EphA2; lot ZE-39-AG34
Protocol: as §3

[10] = molecular target: T1, human EphA2 expressed on HKB-11 cells; assay: flow cytometry on HKB-11 cells overexpressing EphA2; lot PE-07-PN32
Protocol: as §3

[11] = molecular target: T1, human EphA2 expressed on HKB-11 cells; assay: flow cytometry on HKB-11 cells overexpressing EphA2; lot HA-13-AF39
Protocol: as §3

[12] = molecular target: T1, human EphA2 expressed on HKB-11 cells; assay: flow cytometry on HKB-11 cells overexpressing EphA2; lot HE-07-PV32
Protocol: as §3

[13] = molecular target: T1, human EphA2 expressed on HKB-11 cells; assay: flow cytometry on HKB-11 cells overexpressing EphA2; lot DA-62-QP06
Protocol: as §3

[14] = molecular target: T1, human EphA2 expressed on HKB-11 cells; assay: flow cytometry on HKB-11 cells overexpressing EphA2; lot HD-58-MP05
Protocol: as §3

mouse EphA2 ectodomain [15] = molecular target: T2, mouse EphA2 ectodomain; assay: SPR (Biacore 8k), Fab-capture, 37C
Protocol: as §4, §5

cyno EphA2 ectodomain [16] = molecular target: T4, cyno EphA2 ectodomain; assay: SPR (Biacore 8k), Fab-capture, 37C
Protocol: as §4, §5

[17] = molecular target: T1, human EphA2 expressed on HKB-11 cells; assay: flow cytometry on HKB-11 cells overexpressing EphA2; lot DE-39-AD34
Protocol: as §3

[18] = molecular target: T1, human EphA2 expressed on HKB-11 cells; assay: flow cytometry on HKB-11 cells overexpressing EphA2; lot FE-76-NO13
Protocol: as §3

human EphA2 ectodomain [19] = molecular target: T3, human EphA2 ectodomain; assay: SPR (Biacore 8k), Fab-capture, 37C, 1:1 model; *low binding signal;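 on koff: Anti-EphA2 IgG captured via immobilized anti-Fab, soluble EphA2 ectodomain as analyte at six twofold dilutions from 50 nM, HBS-EP+ pH 7.6 running buffer, double reference subtraction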
Protocol: as §4, §5

cyno EphA2 ectodomain [20] = molecular target: T4, cyno EphA2 ectodomain; assay: as above
Protocol: as §4, §5

[21] = molecular target: T1, human EphA2 expressed on HKB-11 cells; assay: flow cytometry on HKB-11 cells overexpressing EphA2; lot PA-62-QD06
Protocol: as §3

[22] = molecular target: T1, human EphA2 expressed on HKB-11 cells; assay: flow cytometry on HKB-11 cells overexpressing EphA2; lot DC-69-ID09
Protocol: as §3

mouse EphA2 ectodomain [23] = molecular target: T2, mouse EphA2 ectodomain; assay: SPR (Biacore 8k), Fab-capture, 37C, 1:1 model; *low binding signal
Protocol: as §4, §5

T1 sequence (P29317 24-976 limits assumed): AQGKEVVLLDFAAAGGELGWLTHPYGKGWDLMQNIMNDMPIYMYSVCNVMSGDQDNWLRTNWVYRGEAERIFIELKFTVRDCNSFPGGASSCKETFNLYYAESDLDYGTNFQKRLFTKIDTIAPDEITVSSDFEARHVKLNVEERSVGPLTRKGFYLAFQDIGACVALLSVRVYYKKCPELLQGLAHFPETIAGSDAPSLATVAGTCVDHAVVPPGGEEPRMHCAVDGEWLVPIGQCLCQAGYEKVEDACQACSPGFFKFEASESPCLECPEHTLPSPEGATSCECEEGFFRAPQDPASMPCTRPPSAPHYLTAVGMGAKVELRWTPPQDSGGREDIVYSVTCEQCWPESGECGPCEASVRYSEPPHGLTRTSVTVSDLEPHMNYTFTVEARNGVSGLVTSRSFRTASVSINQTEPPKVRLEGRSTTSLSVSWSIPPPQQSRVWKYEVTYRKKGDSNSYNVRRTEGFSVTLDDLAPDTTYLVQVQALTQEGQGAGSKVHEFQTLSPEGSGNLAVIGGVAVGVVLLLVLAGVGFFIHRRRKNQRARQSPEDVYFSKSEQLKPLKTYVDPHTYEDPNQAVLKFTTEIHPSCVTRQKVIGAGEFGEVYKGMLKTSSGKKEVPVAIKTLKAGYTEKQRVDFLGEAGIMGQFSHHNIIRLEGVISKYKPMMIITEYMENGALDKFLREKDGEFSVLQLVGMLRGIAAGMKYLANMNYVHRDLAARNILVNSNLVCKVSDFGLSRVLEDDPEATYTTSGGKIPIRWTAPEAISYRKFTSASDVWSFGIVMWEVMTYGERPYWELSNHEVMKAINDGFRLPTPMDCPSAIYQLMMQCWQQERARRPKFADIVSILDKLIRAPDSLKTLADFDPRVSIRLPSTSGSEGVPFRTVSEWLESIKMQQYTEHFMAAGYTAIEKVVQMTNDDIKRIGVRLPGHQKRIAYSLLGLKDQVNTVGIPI
T4 sequence (Q1KL86 25-537): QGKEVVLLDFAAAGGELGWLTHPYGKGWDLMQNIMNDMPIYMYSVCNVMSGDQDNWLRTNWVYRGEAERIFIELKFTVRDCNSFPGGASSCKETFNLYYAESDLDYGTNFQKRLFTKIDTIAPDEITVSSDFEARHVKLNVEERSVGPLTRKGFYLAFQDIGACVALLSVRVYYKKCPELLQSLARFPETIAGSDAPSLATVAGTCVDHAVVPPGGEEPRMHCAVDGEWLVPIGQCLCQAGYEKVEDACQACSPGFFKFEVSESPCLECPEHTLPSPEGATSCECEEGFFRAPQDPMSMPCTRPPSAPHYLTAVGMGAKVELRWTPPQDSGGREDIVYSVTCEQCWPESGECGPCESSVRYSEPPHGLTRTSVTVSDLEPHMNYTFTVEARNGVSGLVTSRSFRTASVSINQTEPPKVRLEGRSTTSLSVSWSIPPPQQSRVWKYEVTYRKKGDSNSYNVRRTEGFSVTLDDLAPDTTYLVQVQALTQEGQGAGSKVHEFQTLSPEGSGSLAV
T3 sequence (P29317 24-537 limits assumed): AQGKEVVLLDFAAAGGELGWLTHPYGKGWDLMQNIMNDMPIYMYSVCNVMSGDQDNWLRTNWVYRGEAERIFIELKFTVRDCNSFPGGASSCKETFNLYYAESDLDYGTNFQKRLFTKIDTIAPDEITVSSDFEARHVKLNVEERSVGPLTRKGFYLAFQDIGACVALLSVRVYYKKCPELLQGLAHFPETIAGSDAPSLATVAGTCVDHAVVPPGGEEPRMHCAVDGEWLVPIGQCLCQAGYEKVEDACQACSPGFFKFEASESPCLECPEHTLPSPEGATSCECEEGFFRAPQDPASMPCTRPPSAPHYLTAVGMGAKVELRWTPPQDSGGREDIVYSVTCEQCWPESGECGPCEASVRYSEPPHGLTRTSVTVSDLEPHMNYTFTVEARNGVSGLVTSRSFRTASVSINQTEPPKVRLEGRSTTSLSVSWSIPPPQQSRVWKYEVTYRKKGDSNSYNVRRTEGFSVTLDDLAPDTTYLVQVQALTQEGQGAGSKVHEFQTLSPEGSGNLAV
T2 sequence (Q03145 26-538): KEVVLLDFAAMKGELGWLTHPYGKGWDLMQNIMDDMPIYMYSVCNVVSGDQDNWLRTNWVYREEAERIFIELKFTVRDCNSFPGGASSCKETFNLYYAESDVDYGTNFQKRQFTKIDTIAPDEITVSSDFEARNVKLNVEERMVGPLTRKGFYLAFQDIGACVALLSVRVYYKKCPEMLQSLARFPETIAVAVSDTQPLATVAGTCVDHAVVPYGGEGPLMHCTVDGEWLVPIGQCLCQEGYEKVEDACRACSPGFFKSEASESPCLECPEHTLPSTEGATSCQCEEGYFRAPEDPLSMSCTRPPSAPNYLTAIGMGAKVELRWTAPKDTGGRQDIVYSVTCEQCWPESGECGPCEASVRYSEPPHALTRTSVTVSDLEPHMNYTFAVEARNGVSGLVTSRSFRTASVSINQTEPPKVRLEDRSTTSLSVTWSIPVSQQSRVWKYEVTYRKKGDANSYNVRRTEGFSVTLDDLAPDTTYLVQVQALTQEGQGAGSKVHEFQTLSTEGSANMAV

B1: anti-EphA2 E152C S375C 1C1 (LC N92Q) hIgG1 (WT Heavy Chain) (antibody, V domains shown)
VH: EVQLLESGGGLVQPGGSLRLSCAASGFTFSHYMMAWVRQAPGKGLEWVSRIGPSGGPTHYADSVKGRFTISRDNSKNTLYLQMNSLRAEDTAVYYCAGYDSGYDYVAVAGPAEYFQHWGQGTLVTVSS
VL: DIQMTQSPSSLSASVGDRVTITCRASQSISTWLAWYQQKPGKAPKLLIYKASNLHTGVPSRFSGSGSGTEFSLTISGLQPDDFATYYCQQYQSYSRTFGQGTKVEIKR
notes: also called 1C1 N92Q IgG; DE-54-AX20
- Kd [1]: 0.089 nM and 0.138 nM
- Kd [2]: 0.114 nM
- EC50 [3]: 3.83 nM
- Kd (mouse EphA2 ectodomain [4]): 385 nM
- koff (mouse EphA2 ectodomain [4]): 0.0661 s⁻¹
- kon (mouse EphA2 ectodomain [4]): 172000 M⁻¹ s⁻¹
- Kd (human EphA2 ectodomain [5]): 196 nM
- koff (human EphA2 ectodomain [5]): 0.0531 s⁻¹
- kon (human EphA2 ectodomain [5]): 271000 M⁻¹ s⁻¹
- Kd (cyno EphA2 ectodomain [6]): 230 nM
- koff (cyno EphA2 ectodomain [6]): 0.0719 s⁻¹
- kon (cyno EphA2 ectodomain [6]): 313000 M⁻¹ s⁻¹
- EC50 [7]: 1.95 nM

B2: anti-EphA2 E152C S375C 1C1 (LC G77S) hIgG1 (WT Heavy Chain) (antibody, V domains shown)
VH: B1 VH
VL: B1 VL with G77S, Q92N
notes: also called 1C1 G77S IgG; ZF-74-CQ11
- Kd [1]: 0.171 nM
- EC50 [8]: 3.73 nM
- EC50 [9]: 2.21 nM
- Kd (mouse EphA2 ectodomain [4]): 369 nM
- Kd (human EphA2 ectodomain [5]): 186 nM
- Kd (cyno EphA2 ectodomain [6]): 222 nM

B5: anti-EphA2_1C1_DAR4_LC_N92Q_G77S (antibody, human IgG1, kappa, V domains shown)
VH: B1 VH
VL: B1 VL with G77S
notes: also called HE-07-PV32
- EC50 [12]: 2.59 nM

B6: anti-EphA2 E152C S375C 1C1 (LC S93Q) hIgG1 (WT Heavy Chain) (antibody, V domains shown)
VH: B1 VH
VL: B1 VL with Q92N, S93Q
notes: also called DA-62-QP06
- EC50 [13]: 2.13 nM
- Kd (mouse EphA2 ectodomain [4]): 335 nM
- koff (mouse EphA2 ectodomain [4]): 0.0552 s⁻¹
- kon (mouse EphA2 ectodomain [4]): 165000 M⁻¹ s⁻¹
- Kd (human EphA2 ectodomain [5]): 237 nM
- koff (human EphA2 ectodomain [5]): 0.0635 s⁻¹
- kon (human EphA2 ectodomain [5]): 268000 M⁻¹ s⁻¹
- Kd (cyno EphA2 ectodomain [6]): 272 nM
- koff (cyno EphA2 ectodomain [6]): 0.338 s⁻¹
- kon (cyno EphA2 ectodomain [6]): 1.24e+06 M⁻¹ s⁻¹

B8: anti-EphA2 E152C S375C 1C1 (LC N92A) hIgG1 (WT Heavy Chain) (antibody, V domains shown)
VH: B1 VH
VL: B1 VL with Q92A
notes: also called BC-56-WI24
- binding result (mouse EphA2 ectodomain [15]): no binding (tested: EphA2 ectodomain titrated from 50 nM)
- binding result (cyno EphA2 ectodomain [16]): no binding (tested: EphA2 ectodomain titrated from 50 nM)

B10: anti-EphA2 E152C S375C 1C1 (LC S93V) hIgG1 (WT Heavy Chain) (antibody, V domains shown)
VH: B1 VH
VL: B1 VL with Q92N, S93V
notes: also called PA-62-QD06
- Kd (human EphA2 ectodomain [19]): 268 nM
- Kd (cyno EphA2 ectodomain [20]): 246 nM
- Kd (mouse EphA2 ectodomain [4]): 286 nM
- koff (mouse EphA2 ectodomain [4]): 0.0508 s⁻¹
- kon (mouse EphA2 ectodomain [4]): 178000 M⁻¹ s⁻¹
- koff (human EphA2 ectodomain [5]): 0.0792 s⁻¹
- kon (human EphA2 ectodomain [5]): 296000 M⁻¹ s⁻¹
- koff (cyno EphA2 ectodomain [6]): 0.105 s⁻¹
- kon (cyno EphA2 ectodomain [6]): 428000 M⁻¹ s⁻¹
- EC50 [21]: 20.2 nM

B11: anti-EphA2 E152C S375C 1C1 (LC S10T_S72T_G77S) hIgG1 (WT Heavy Chain) (antibody, V domains shown)
VH: B1 VH
VL: B1 VL with S10T, S72T, G77S, Q92N
notes: also called 3x germ
- EC50 [22]: 23.9 nM
- Kd (mouse EphA2 ectodomain [23]): 328 nM
- Kd (human EphA2 ectodomain [19]): 398 nM
- Kd (cyno EphA2 ectodomain [20]): 137 nM
- koff (mouse EphA2 ectodomain [4]): 0.0635 s⁻¹
- kon (mouse EphA2 ectodomain [4]): 193000 M⁻¹ s⁻¹
- koff (human EphA2 ectodomain [5]): 0.0996 s⁻¹
- kon (human EphA2 ectodomain [5]): 250000 M⁻¹ s⁻¹
- koff (cyno EphA2 ectodomain [6]): 0.121 s⁻¹
- kon (cyno EphA2 ectodomain [6]): 886000 M⁻¹ s⁻¹

More lines, now with the values ahead:

- Kd [1]: 0.124 nM and 0.134 nM
- EC50 [10]: 1.81 nM
- Kd [2]: 0.129 nM
B3: anti-EphA2_1C1_DAR4_LC_N92Q_S72T_G77S (antibody, human IgG1, kappa, V domains shown)
VH: B1 VH
VL: B1 VL with S72T, G77S

- EC50 [11]: 1.8 nM
B4: anti-EphA2_1C1_DAR4_LC_N92Q_S72T (antibody, human IgG1, kappa, V domains shown)
VH: B1 VH
VL: B1 VL with S72T
notes: also called HA-13-AF39

- Kd (mouse EphA2 ectodomain [4]): 343 nM
- koff (mouse EphA2 ectodomain [4]): 0.0625 s⁻¹
- kon (mouse EphA2 ectodomain [4]): 182000 M⁻¹ s⁻¹
- Kd (human EphA2 ectodomain [5]): 265 nM
- koff (human EphA2 ectodomain [5]): 0.131 s⁻¹
- kon (human EphA2 ectodomain [5]): 493000 M⁻¹ s⁻¹
- Kd (cyno EphA2 ectodomain [6]): 259 nM
- koff (cyno EphA2 ectodomain [6]): 0.181 s⁻¹
- kon (cyno EphA2 ectodomain [6]): 697000 M⁻¹ s⁻¹
- EC50 [14]: 3.44 nM
B7: anti-EphA2 E152C S375C 1C1 (LC S93A) hIgG1 (WT Heavy Chain) (antibody, V domains shown)
VH: B1 VH
VL: B1 VL with Q92N, S93A
notes: also called HD-58-MP05

- Kd [1]: 0.132 nM and 0.143 nM
- EC50 [17]: 2.12 nM
- Kd [2]: 0.137 nM
- EC50 [18]: 3.19 nM
- Kd (mouse EphA2 ectodomain [4]): 377 nM
- koff (mouse EphA2 ectodomain [4]): 0.0512 s⁻¹
- kon (mouse EphA2 ectodomain [4]): 136000 M⁻¹ s⁻¹
- Kd (human EphA2 ectodomain [5]): 216 nM
- koff (human EphA2 ectodomain [5]): 0.0518 s⁻¹
- kon (human EphA2 ectodomain [5]): 240000 M⁻¹ s⁻¹
- Kd (cyno EphA2 ectodomain [6]): 230 nM
- koff (cyno EphA2 ectodomain [6]): 0.17 s⁻¹
- kon (cyno EphA2 ectodomain [6]): 737000 M⁻¹ s⁻¹
B9: anti-EphA2 E152C S375C 1C1 (LC S72T) hIgG1 (WT Heavy Chain) (antibody, V domains shown)
VH: B1 VH
VL: B1 VL with S72T, Q92N
notes: also called 1C1 S72T IgG; FE-76-NO13
